Source: the DeepSol protein solubility set

Experiment: soluble on expression in E. coli; label from the status in PepcDB or PDB records

**Q.** For “MGSDKIHHHHHHMISDIPFLALLPLGAHEYHGDHLPFETDWIIAEAFAKALTVKTKKQFHIALLPVEKIGYSIEHMDVSGTQTLTFSEAIERWINIGEDCYRKGIKRFLLLNAHGGNSPLMSIVITELRKRFSMLAVATSWTRFGLPHGLMHPSQHHLDIHGGFIETSLMLYLAPEKVHMEKAKNFYNKQADMIANYQYLRAYGPHAFGWTMRDLNLQGAAGKAREATSQAGKAIFSHVLGGLRGLLDDINRFKIDAL”, which “soluble on expression in E. coli” value is on record?
**A.** Its value is “not soluble”.

**Q.** For “LQTLPPVQLAQKYFQIFSEEKDPLWQDPCEDKRHKDIWSKEKTCDRFPKLLIIGPQKTGTTALYLFLGMHPDLSSNYPSSETFEEIQFFNGHNYHKGIDWYMEFFPIPSNTTSDFYFEKSANYFDSEVAPRRAAALLPKAKVLTILINPADRAYSWYQHQRAHDDPVALKYTFHEVITAGSDASSKLRALQNRCLVPGWYATHIERWLSAYHANQILVLDGKLLRTEPAKVMDMVQKFLGVTNTIDYHKTLAFDPKKGFWCQLLEGGKTKCLGKSKGRKYPEMDLDSRAFLKDYYRDHNIELSKLLYKMGQTLPTWLREDLQNTR”, which “soluble on expression in E. coli” value is on record?
**A.** The value was “soluble”.

**Q.** With “GPGSMDGFRLYMEGISLPEGSMRRANAELIGAINSPDPMVQHSGLQMLCDQLTMSSFISPSTMTTIPLVLPSLLRCIASSQVREVFITAARALTYIIDAFPRTFETFPTRDTLIEVLLQHLRSIQDVELSEQCITCLEMITRSQTGSRELLHNNGVEAVLGFADFFTLHKQRQIWTIVQRLVGEVDESSVQHITACLPTLRIGMTNGDSEIRQKAIATLAQAIEGVKTDRAIVETVFGDAADRIAVLLHERDVNDDTLSSALSLLYAGVQWSAGIAASVIQSDLLNTLLSLLQSTPVPAVVAEQHTAPSAGAGRVARRSAAAELVVGRDSTTDSGGGAGTEPAAARTTMLTSHQRTIVCRLLASLLIPCRTGAAEQLERLEMLTQRPLLTGARAHGKPVGHGRRR” as the sequence, how does the “soluble on expression in E. coli” value read?
**A.** Its value is “not soluble”.

**Q.** Which “soluble on expression in E. coli” value does the source give for “MPKVGMPEIRKPQLVKATMSVIDRVGLHAASISLISKEAGVSTGIINHYFGGKHGLLEETMREILRQLSSTITGKLRALPADAHHQRINAIIDGNFVGYQAENKVAKTWLAFWSYSMHDEQLKRLQRVNERRLLSHLRRELKALLSAEQAELVAHGIASLIDGIWLRGTLNPQGIEADKARIIINDYLDKQLTFYSHKI” here?
**A.** Its value is “not soluble”.

**Q.** With “MSLKRQLGKDVVQAARERIHILFDEFEHIYVSFSGGKDSGVLLHLVIEEARKRNRLPVDVLIVDLEAQYQHTIHFVERMVNKKEVNAFWVCLPLSLRNSVSQFQPKWICWDPDKKEDWIRALPLHASVINEEEYFSFYSFGMEFETFVSAFGEWYSEKKQCPCACLVAIRADESLNRYKTIKNQRKKRLKQYGWTTKASDVFYKAYLIYDWHVTDIWIANGRFNWDYNHVYDLMHKAGLSLAQQRLCQPFGDDQRKGLWLYQILEPQTWQKLVVRVEGCNFGARYSKKQGHILGYYKFDLPEGYTYRSYSKYLLNSMPPHLADHYRKRLFKFLNWWRKNGKEQGILSIPDFADKKLEAKKKVPSWRRICKVLIKNDYWCRGLSFGQSKKLTEHYIDLYEGYFRKEGHHHHHH” as the sequence, how does the “soluble on expression in E. coli” value read?
**A.** The value was “soluble”.

**Q.** With “MSLARMSRRSRGAAGAQSVVKPETPMAQVLHQFNYCPCQYLEQNWIVPKQPWLLNLDGWRDNPNFNLWCLEEWALAPVPETAFNKPHHSLALLPPDALSTLMLTIGGALHSFAMRQVVLKKPKQCLNNVFGLDIARFLIQQGPMLLSQWPKGWQKALPDVMKEDEVERHMLKQGYAWMKFILASSSHDILLRWQFKLDQSLSQVKENTSWLVEEQRDLAYRLTKKIAKQVIPQWFHLLKEGHHHHHH” as the sequence, how does the “soluble on expression in E. coli” value read?
**A.** Its value is “not soluble”.

**Q.** With “RPLFAREGGIYAVLVCMQEYKTSVLVQQAGLAALKMLAVASSSEIPTFVTGRDSIHSLFDAQMTREIFASIDSATRPGSESLLLTVPAAVILMLNTEGCSSAARNGLLLLNLLLCNHHTLGDQIITQELRDTLFRHSGIAPRTEPMPTTRTILMMLLNRYSEPPGSPERAALETPIIQGQDGSPELLIRSLVGGPSAELLLDLERVLCREGSPGGAVRPLLKRLQQETQPFLLLLRTLDAPGPNKTLLLSVLRVITRLLDFPEAMVLPWHEVLEPCLNCLSGPSSDSEIVQELTCFLHRLASMHKDYAVVLCCLGAKEILSKVLDKHSAQLLLGCELRDLVTECEKYAQLYSNLTSSILAGCIQMVLGQIEDHRRTHQPINIPFFDVFLRHLCQGSSVEVKEDKCWEKVEVSSNPHRASKLTDHNPKTYWESNGSTGSHYITLHMHRGVLVRQLTLLVASEDSSYMPARVVVFGGDSTSCIGTELNTVNVMPSASRVILLENLNRFWPIIQIRIKRCQQGGIDTRVRGVEVLGPKPTFWPLFREQLCRRTCLFYTIRAQAWSRDIAEDHRRLLQLCPRLNRVLRHEQNFADRFLPDDEAAQALGKTCWEALVSPLVQNITSPDAEGVSALGWLLDQYLEQRETSRNPLSRAASFASRVRRLCHLLVHVEPPPGPSPEPSTRPFSKNSKGRDRSPAPSPVLPSSSLRNITQCWLSVVQEQVSRFLAAAWRAPDFVPRYCKLYEHLQRAGSELFGPRAAFMLALRSGFSGALLQQSFLTAAHMSEQFARYIDQQIQGGLIGGAPGVEMLGQLQRHLEPIMVLSGLELATTFEHFYQHYMADRLLSFGSSWLEGAVLEQIGLCFPNRLPQLMLQSLSTSEELQRQFHLFQLQRLDKLFLEQEDEEEKRLEEEEEEEEEEEAEKELFIEDPSPAISILVLSPRCWPVSPLCYLYHPRKCLPTEFCDALDRFSSFYSQSQNHPVLDMGPHRRLQWTWLGRAELQFGKQILHVSTVQMWLLLKFNQTEEVSVETLLKDSDLSPELLLQALVPLTSGNGPLTLHEGQDFPHGGVLRLHEPGPQRSGEALWLIPPQAYLNVEKDEGRTLEQKRNLLSCLLVRILKAHGEKGLHIDQLVCLVLEAWQKGPNPPGTLGHTVAGGVACTSTDVLSCILHLLGQGYVKRRDDRPQILMYAAPEPMGPCRGQADVPFCGSQSETSKPSPEAVATLASLSCLQAAP” as the sequence, how does the “soluble on expression in E. coli” value read?
**A.** The value was “soluble”.

**Q.** Which “soluble on expression in E. coli” value does the source give for “MSIPEELWRRFQEGDPRALARALTLVESGHPAGRELLKRVRGKGRAKVVGVTGSPGAGKSTLTDRLILEARKRGERVAVLAVDPSSPFSGGAILGDRIRMMRHHQDPGVYIRSMASRGALGGLAGATVAALSLLEAFGFDRIFVETVGVGQSEVDIARVADTTLLVLTPAAGDAVQAFKAGVMEIADVFAVNKFDLPGGERIVQELKSALELSPPRPGGWRPPIHPTVAASGEGVEALFESLEAHHRHLVEHGLLEAHRLERARFEVESVIQEWGRQRTQGAGALVARVARGELTPEEAALALLGPGPEAEEGAL” here?
**A.** Its value is “soluble”.

**Q.** Which “soluble on expression in E. coli” value does the source give for “MSLAVLPDVPKSKDMKHRPRFLPSIGPMKKRVAFFSGCLMDTMFLPTNNATLKLLQLAGCDIVIPPEQACCGALHGHSGEKNTGKELAKQNIAAFEALDVDAVITNAGGCGAFLTEYDHLLKDDPEWSERAAAFVQKLKDFSSVLVELDFHQMDLALETPQVVTYQDSCHLRNVMHTSLEPRQLLKSIKGAEFKEMEKADSCCGSAGIYNIVEVEMSMKILDSKMAAVKATEAILIVTANPGCLLQMKLGIEREGLSGKVRAVHLADLLLEAAGHKTSEGHHHHHH” here?
**A.** The value was “soluble”.

**Q.** With “MGSDKIHHHHHHMSAPTPLAEASQIPTIPALSPLTAKQSKGNFFSSNPISSFVVDTYKQLHSHRQSLELVNPGTVENLNKEVSRDVFLSQYFFTGLRADLNKAFSMNPAFQTSHTFSIGSQALPKYAFSALFANDNLFAQGNIDNDLSVSGRLNYGWDKKNISKVNLQISDGQPTMCQLEQDYQASDFSVNVKTLNPSFSEKGEFTGVAVASFLQSVTPQLALGLETLYSRTDGSAPGDAGVSYLTRYVSKKQDWIFSGQLQANGALIASLWRKVAQNVEAGIETTLQAGMVPITDPLMGTPIGIQPTVEGSTTIGAKYEYRQSVYRGTLDSNGKVACFLERKVLPTLSVLFCGEIDHFKNDTKIGCGLQFETAGNQELLMLQQGLDADGNPLQALPQL” as the sequence, how does the “soluble on expression in E. coli” value read?
**A.** Its value is “not soluble”.

**Q.** Which “soluble on expression in E. coli” value does the source give for “MDVEKIALKHALINAIEHGGKANLKAVIGKVLGENPELRPRAKEIIPIINKVVEEVNSLARDEQLEKLKDIYPEYFEKKEEKKEKKGLPLLPKAEKGKVVTRFAPNPDGAFHLGNARAAILSYEYAKMYGGKFILRFDDTDPKVKRPEPIFYKMIIEDLEWLGIKPDEIVYASDRLEIYYKYAEELIKMGKAYVCTCPPEKFRELRDKGIPCPHRDEPVEVQLERWKKMLNGEYKEGEAVVRIKTDLNHPNPAVRDWPALRIIDNPNHPRTGNKYRVWPLYNFASAIDDHELGVTHIFRGQEHAENETRQRYIYEYFGWEYPVTIHHGRLSIEGVVLSKSKTRKGIEEGKYLGWDDPRLGTIRALRRRGILPEAIKELIIEVGLKKSDATISWENLAAINRKLVDPIANRYFFVADPIPMEVEGAPEFIAEIPLHPDHPERGVRRLKFTPERPVYVSKDDLNLLKPGNFVRLKDLFNVEILEVGDKIRARFYSFEYEIAKKNRWKMVHWVTEGRPCEVIIPEGDELVVRKGLLEKDAKVQVNEIVQFERFGFVRIDRIEGDKVIAIYAHK” here?
**A.** The value was “soluble”.

**Q.** Which “soluble on expression in E. coli” value does the source give for “MSLSLRDEALEMHKRNQGKLEVKPNVKVTNKEELSLAYSPGVAEPCKDIYEDKRKVYDYTIKGNTVAVITDGTAVLGLGNIGPEASIPVMEGKAVLFKSFAGINGVPIALNTTDTEEIIKTVKLLEPNYGGINLEDISAPRCFEIEERLKKETNIPVFHDDQHGTAIVTMAGLVNALRVVNKDIAKIKVVLNGAGAAGIAIVKLLYAYGVRNMVMCDSRGAIFEGRSYGMNPTKDVVAKWTNKDKIEGSLEEVVKDADVFIGVSVANALSQDMVKSMADNPIIFAMANPNPEIIPDDAKAAGARVVGTGRSDYPNQINNVLAFPGIFRGALEVEATHINEEMKKAAVEAIADLIDSSELNEDYCIPGPFDKRVAPSVARNVAKAAMESGVARIEVDPQDVYDKTMKLTDLQEGHHHHHH” here?
**A.** The value was “soluble”.

**Q.** Which “soluble on expression in E. coli” value does the source give for “MSLGITGPTFDLTAQPGRANQPDGASVYSWGYGCNPRTVPGFLPSVNPLAGQNCPGMQLPGPTLIVHQGDVVTVTLTNNLPPAAGNTSILFPGFQVCAGTLDPNTGACSGTPTGVQGLLTREAQTGKTVTYTFIATTPGTHAYYSGTQGDLQVEMGLYGALIVLPTASGSVAVPAGCRAVSSLLPDGQPDYRNAAAAYNHSMACYDREYLFQFSEIDPAIHVQAEQQAGLPCAQPAGCMIVRTEPYHPAYFMVNGRSMPDDMDTNYAPQYPSQPYNGNPHMHPGELVLLRIIGTGRWQHPFHEHGNHVRVLARDGNLLLSQGDPSKVAGPLLFTTTTTPGLAMDGIFYWTGRGLNWDVYGHKPGDGSVCIPDANGYYTQDPTAPNYYEWCADHDKPLEAHPFGDVNSGGPVTLPDPNIFSNGAWYGGSPYLGPDATIRAVGATGTTPPTGTIANPPTTEAGFAFMWHSHNEREITTNNIFPGGMMMMMLVDPQAFVINEANEGHHHHHH” here?
**A.** The value was “not soluble”.

**Q.** With “AEVTQLSNGIVVATEHNPSAHTASVGVVFGSGAANENPYNNGVSNLWKNIFLSKENSAVAAKEGLALSSNISRDFQSYIVSSLPGSTDKSLDFLNQSFIQQKANLLSSSNFEATKKSVLKQVQDFEDNDHPNRVLEHLHSTAFQNTPLSLPTRGTLESLENLVVADLESFANNHFLNSNAVVVGTGNIKHEDLVNSIESKNLSLQTGTKPVLKKKAAFLGSEVRLRDDTLPKAWISLAVEGEPVNSPNYFVAKLAAQIFGSYNAFEPASRLQGIKLLDNIQEYQLCDNFNHFSLSYKDSGLWGFSTATRNVTMIDDLIHFTLKQWNRLTISVTDTEVERAKSLLKLQLGQLYESGNPVNDANLLGAEVLIKGSKLSLGEAFKKIDAITVKDVKAWAGKRLWDQDIAIAGTGQIEGLLDYMRIRSDMSMMRW” as the sequence, how does the “soluble on expression in E. coli” value read?
**A.** The value was “soluble”.
